Positions count from the first letter of the chain named.
B1: TP006 (Fc fusion)
chain 1: DVQLVESGGGLVQPGGSLRLSCAASGLTFSTNPMYWYRQAPGKQRELVASISSRGITNYADSVKGRFTISRDNSKNTVYLQMNSLRPEDTAVYYCRLASLSSGTVYWGQGTLVTVSSDKTHTCPPCPAPEAAGGPSVFLFPPKPKDTLMISRTPEVTCVVVDVSQEDPEVQFNWYVDGVEVHNAKTKPREEQFNSTYRVVSVLTVLHQDWLNGKEYKCKVSNKGLPSSIEKTISKAKGQPREPQVYTLPPCQEEMTKNQVSLWCLVKGFYPSDIAVEWESNGQPENNYKTTPPVLDSDGSFFLYSKLTVDKSRWQEGNVFSCSVMHEALHNHYTQKSLSLSLGGGGGSGGGGSGGGGSGGGGSGGGGSGGGGSGGGGSEVQLVESGGGVVQPGGSLRLSCAASGFTFRSFGMSWVRQAPGKGPEWVSSISGSGSDTLYADSVKGRFTISRDNSKNTLYLQMNSLRPEDTALYYCTIGGSLSRSSQGTLVTVSS
chain 2: DKTHTCPPCPAPEAAGGPSVFLFPPKPKDTLMISRTPEVTCVVVDVSQEDPEVQFNWYVDGVEVHNAKTKPREEQFNSTYRVVSVLTVLHQDWLNGKEYKCKVSNKGLPSSIEKTISKAKGQPREPQVCTLPPSQEEMTKNQVSLSCAVKGFYPSDIAVEWESNGQPENNYKTTPPVLDSDGSFFLVSKLTVDKSRWQEGNVFSCSVMHEALHNHYTQKSLSLSLG
notes: IgG4 FALA Fc (knob-in-hole); irrelevant ISVD N-terminal and ALB23002 C-terminal (35GS) on chain 1; chain 2 is hinge-Fc only
B2: TP009 (Fc fusion)
chain 1: DVQLVESGGGLVQPGGSLRLSCAASGLTFSTNPMYWYRQAPGKQRELVASISSRGITNYADSVKGRFTISRDNSKNTVYLQMNSLRPEDTAVYYCRLASLSSGTVYWGQGTLVTVSSDKTHTCPPCPAPEAAGGPSVFLFPPKPKDTLMISRTPEVTCVVVDVSQEDPEVQFNWYVDGVEVHNAKTKPREEQFNSTYRVVSVLTVLHQDWLNGKEYKCKVSNKGLPSSIEKTISKAKGQPREPQVYTLPPCQEEMTKNQVSLWCLVKGFYPSDIAVEWESNGQPENNYKTTPPVLDSDGSFFLYSKLTVDKSRWQEGNVFSCSVMHEALHNHYTQKSLSLSLG
chain 2: DVQLVESGGGVVQPGGSLRLSCAASGFTFRSFGMSWVRQAPGKGPEWVSSISGSGSDTLYADSVKGRFTISRDNSKNTLYLQMNSLRPEDTALYYCTIGGSLSRSSQGTLVTVSSDKTHTCPPCPAPEAAGGPSVFLFPPKPKDTLMISRTPEVTCVVVDVSQEDPEVQFNWYVDGVEVHNAKTKPREEQFNSTYRVVSVLTVLHQDWLNGKEYKCKVSNKGLPSSIEKTISKAKGQPREPQVCTLPPSQEEMTKNQVSLSCAVKGFYPSDIAVEWESNGQPENNYKTTPPVLDSDGSFFLVSKLTVDKSRWQEGNVFSCSVMHEALHNHYTQKSLSLSLG
notes: IgG4 FALA Fc (knob-in-hole); irrelevant ISVD N-terminal on chain 1, ALB23002 N-terminal on chain 2
B3: TP003 (Fc fusion)
chain 1: B2 chain 1
chain 2: B2 chain 1 with Y246C, C251S, W263S, L265A, Y304V
notes: IgG4 FALA Fc (knob-in-hole) with two N-terminal non-targeting ISVDs; also called control ISVD-Fc construct
B4: TP008 (Fc fusion)
chain 1: DVQLVESGGGLVQPGGSLRLSCAASGLTFSTNPMYWYRQAPGKQRELVASISSRGITNYADSVKGRFTISRDNSKNTVYLQMNSLRPEDTAVYYCRLASLSSGTVYWGQGTLVTVSSDKTHTCPPCPAPEAAGGPSVFLFPPKPKDTLMISRTPEVTCVVVDVSQEDPEVQFNWYVDGVEVHNAKTKPREEQFNSTYRVVSVLTVLHQDWLNGKEYKCKVSNKGLPSSIEKTISKAKGQPREPQVYTLPPCQEEMTKNQVSLWCLVKGFYPSDIAVEWESNGQPENNYKTTPPVLDSDGSFFLYSKLTVDKSRWQEGNVFSCSVMHEALHNHYTQKSLSLSLGGGGGSGGGGSGGGGSGGGGSGGGGSGGGGSGGGGSEVQLVESGGGLVQPGGSLRLSCAASGLTFSTNPMYWYRQAPGKQRELVASISSRGITNYADSVKGRFTISRDNSKNTVYLQMNSLRPEDTAVYYCRLASLSSGTVYWGQGTLVTVSS
chain 2: B1 chain 2
notes: IgG4 FALA Fc knob-in-hole

Key:
[1] = biological target: T1, Human FcRn (biotinylated human FcRn) (human, UniProt P61769 21-119); experiment: SPR Biacore 8K+, biotinylated hFcRn on SA chip (~1000-2000 RU), pH 6.0, no HSA, bivalent analyte fit (KD1)
T1 construct: Biotinylated human FcRn captured on a Series S Sensor Chip SA; also called human neonatal Fc receptor; hFcRn

[2] = biological target: T1, Human FcRn (biotinylated human FcRn); experiment: SPR Biacore 8K+, biotinylated hFcRn on SA chip (~600 RU), pH 6.0, bivalent analyte fit
[3] = biological target: T1, Human FcRn (biotinylated human FcRn); experiment: SPR Biacore 8K+, biotinylated hFcRn on SA chip (~600 RU), pH 6.0, bivalent analyte fit (ka1)
[4] = biological target: T2, Human serum albumin (HSA; Sigma-Aldrich Cat No. A8763) (human, UniProt P02768 25-609); experiment: SPR Biacore 8K+, HSA on CM5 chip, pH 6.0, 1:1 fit
[5] = biological target: T1, Human FcRn (biotinylated human FcRn); experiment: SPR Biacore 8K+, biotinylated hFcRn on SA chip (~1000-2000 RU), pH 6.0, no HSA, 1:1 fit
[6] = biological target: T3, Mouse serum albumin (MSA; Albumin Bioscience Cat No. 2601) (mouse, UniProt P07724 25-608); experiment: SPR Biacore 8K+, MSA on CM5 chip, pH 6.0, 1:1 fit
[7] = biological target: T1, Human FcRn (biotinylated human FcRn); experiment: SPR Biacore 8K+, biotinylated hFcRn on SA chip (~1000-2000 RU), pH 6.0, no HSA, bivalent analyte fit (ka1)
[8] = biological target: T1, Human FcRn (biotinylated human FcRn); experiment: SPR Biacore 8K+, biotinylated hFcRn on SA chip (~600 RU), pH 6.0, bivalent analyte fit (kd1)
[9] = biological target: T3, Mouse serum albumin (MSA; Albumin …); experiment: SPR Biacore 8K+, MSA on CM5 chip, pH 7.4, 1:1 fit
[10] = biological target: T1, Human FcRn (biotinylated human FcRn); experiment: SPR Biacore 8K+, biotinylated hFcRn on SA chip (~600 RU), pH 6.0, bivalent analyte fit (KD1)
[11] = biological target: T1, Human FcRn (biotinylated human FcRn); experiment: SPR Biacore 8K+, biotinylated hFcRn on SA chip (~1000-2000 RU), pH 6.0, no HSA, bivalent analyte fit
[12] = biological target: T1, Human FcRn (biotinylated human FcRn); experiment: SPR Biacore 8K+, biotinylated hFcRn on SA chip (~1000-2000 RU), pH 6.0, with 30 uM HSA, bivalent analyte fit (kd1); remark: no good fit possible
[13] = biological target: T1, Human FcRn (biotinylated human FcRn); experiment: SPR Biacore 8K+, biotinylated hFcRn on SA chip (~1000-2000 RU), pH 6.0, no HSA, bivalent analyte fit (kd1)
[14] = biological target: T2, Human serum albumin (HSA; Sigma-Aldrich …); experiment: SPR Biacore 8K+, HSA on CM5 chip, pH 7.4, 1:1 fit
[15] = biological target: T1, Human FcRn (biotinylated human FcRn); experiment: SPR Biacore 8K+, biotinylated hFcRn on SA chip (~1000-2000 RU), pH 6.0, with 30 uM HSA, bivalent analyte fit (KD1)
[16] = biological target: T1, Human FcRn (biotinylated human FcRn); experiment: SPR Biacore 8K+, biotinylated hFcRn on SA chip (~1000-2000 RU), pH 6.0, with 30 uM HSA, bivalent analyte fit (kd1)
[17] = biological target: T1, Human FcRn (biotinylated human FcRn); experiment: SPR Biacore 8K+, biotinylated hFcRn on SA chip (~1000-2000 RU), pH 6.0, with 30 uM HSA, bivalent analyte fit (ka1)
[18] = biological target: T1, Human FcRn (biotinylated human FcRn); experiment: SPR Biacore 8K+, biotinylated hFcRn on SA chip (~1000-2000 RU), pH 6.0, with 30 uM HSA, bivalent analyte fit

Binder | Kd [1] | ka2 [2] | kd2 [2] | kon [3] | Kd [4] | koff [4] | Kd [5] | koff [5] | kon [5] | kon [7] | koff [8] | Kd [10] | ka2 [11] | kd2 [11] | koff [13] | Kd [15] | koff [16] | kon [17] | ka2 [18] | kd2 [18] | other results
B1 | 290 nM | 10.7 1/RUs | 71.9 s⁻¹ | 9440 M⁻¹ s⁻¹ | 32 nM | 0.0017 s⁻¹ | 18 nM | 0.083 s⁻¹ | 4.5e+06 M⁻¹ s⁻¹ | 140000 M⁻¹ s⁻¹ | 0.00402 s⁻¹ | 426 nM | 0.00013 1/RUs | 0.002 s⁻¹ | 0.042 s⁻¹ |  |  |  |  |  | kon [4]: 54000 M⁻¹ s⁻¹; Kd [6]: 84 nM; koff [6]: 0.0026 s⁻¹; kon [6]: 31000 M⁻¹ s⁻¹; Kd [9]: 120 nM; koff [9]: 0.0028 s⁻¹; kon [9]: 23000 M⁻¹ s⁻¹; koff [12]: 0.0016 s⁻¹; Kd [14]: 67 nM; koff [14]: 0.0017 s⁻¹; kon [14]: 26000 M⁻¹ s⁻¹
B2 | 150 nM | 0.917 1/RUs | 10.2 s⁻¹ | 22800 M⁻¹ s⁻¹ | 2.7 nM | 0.00037 s⁻¹ | 3 nM | 0.0067 s⁻¹ | 2.3e+06 M⁻¹ s⁻¹ | 240000 M⁻¹ s⁻¹ | 0.000344 s⁻¹ | 15.1 nM | 0.0013 1/RUs | 0.018 s⁻¹ | 0.037 s⁻¹ | 23 nM | 0.0017 s⁻¹ | 75000 M⁻¹ s⁻¹ | 0.0074 1/RUs | 0.095 s⁻¹ | kon [4]: 140000 M⁻¹ s⁻¹; Kd [6]: 13 nM; koff [6]: 0.002 s⁻¹; kon [6]: 160000 M⁻¹ s⁻¹; Kd [9]: 21 nM; koff [9]: 0.0026 s⁻¹; kon [9]: 130000 M⁻¹ s⁻¹; Kd [14]: 6.7 nM; koff [14]: 0.0005 s⁻¹; kon [14]: 75000 M⁻¹ s⁻¹
B3 | 39 nM | 0.011 1/RUs | 0.0329 s⁻¹ | 77000 M⁻¹ s⁻¹ |  |  | 3.6 nM | 0.0017 s⁻¹ | 460000 M⁻¹ s⁻¹ | 250000 M⁻¹ s⁻¹ | 0.000238 s⁻¹ | 3.09 nM | 0.15 1/RUs | 2.4 s⁻¹ | 0.0098 s⁻¹ | 77 nM | 0.036 s⁻¹ | 470000 M⁻¹ s⁻¹ | 100 1/RUs | 1900 s⁻¹ | 
B4 | 75 nM | 28.7 1/RUs | 51.1 s⁻¹ | 3.25e+06 M⁻¹ s⁻¹ |  |  | 4.3 nM | 0.0086 s⁻¹ | 2e+06 M⁻¹ s⁻¹ | 270000 M⁻¹ s⁻¹ | 0.0198 s⁻¹ | 6.1 nM | 6.2e-05 1/RUs | 0.0021 s⁻¹ | 0.02 s⁻¹ | 190 nM | 0.047 s⁻¹ | 260000 M⁻¹ s⁻¹ | 7.1 1/RUs | 120 s⁻¹ | 

— patent US20240368250A1 (Ablynx, published 2024)
